In paper doi:10.1101/145276:

Target: T1, Mmi1 YTH domain (longer construct) (Schizosaccharomyces pombe, UniProt O74958 326-488)
T1 sequence: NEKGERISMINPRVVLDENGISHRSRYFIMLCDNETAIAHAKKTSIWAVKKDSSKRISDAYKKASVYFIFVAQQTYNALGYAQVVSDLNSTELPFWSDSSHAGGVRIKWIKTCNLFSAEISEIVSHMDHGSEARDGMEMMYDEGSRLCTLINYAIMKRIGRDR
Assay: ITC

B1: DSR 8-mer (ssRNA)
RNA: AUUAAACA
  binding result: binds
